Source: patent publication US20160272693A1 (ZEALAND PHARMA A S, published 2016)
*1 amine or outer side, *2 acyl side, *3 side chain or, on linkers, in order; H or OH if unused. Bridges are numbered along the chain shown (N, C = ends). [ ]: non-standard residue; d: D form. The star is where a group is joined. C20 diacid = O=C(O)CCCCCCCCCCCCCCCCCCC(=O)*; γGlu = O=C(O)[C@H](CCC(=O)[*:2])N[*:1]; Hyp = O=C(O)[C@@H]1C[C@@H](O)CN1; NMeI = CC[C@H](C)[C@H](NC)C(=O)O; Sar = CNCC(=O)O

T1: human amylin receptor 3 (hAMYR3), hCTR2 co-expressed with human receptor activity modifying protein 3 (hRAMP3) (human, UniProt P30988 25-474; O60896 24-148)
T1 sequence (looked up) 1: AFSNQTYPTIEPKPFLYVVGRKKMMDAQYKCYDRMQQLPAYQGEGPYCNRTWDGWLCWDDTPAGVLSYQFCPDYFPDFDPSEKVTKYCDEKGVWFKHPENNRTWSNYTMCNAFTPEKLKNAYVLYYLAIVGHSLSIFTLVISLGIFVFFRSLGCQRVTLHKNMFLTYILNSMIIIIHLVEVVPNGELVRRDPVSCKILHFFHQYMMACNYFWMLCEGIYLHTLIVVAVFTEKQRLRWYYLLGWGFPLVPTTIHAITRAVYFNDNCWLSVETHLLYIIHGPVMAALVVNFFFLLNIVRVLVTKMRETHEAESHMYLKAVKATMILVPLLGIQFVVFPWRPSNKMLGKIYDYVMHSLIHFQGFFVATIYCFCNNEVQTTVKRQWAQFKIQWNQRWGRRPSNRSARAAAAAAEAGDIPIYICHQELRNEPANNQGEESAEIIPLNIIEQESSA
T1 sequence (looked up) 2: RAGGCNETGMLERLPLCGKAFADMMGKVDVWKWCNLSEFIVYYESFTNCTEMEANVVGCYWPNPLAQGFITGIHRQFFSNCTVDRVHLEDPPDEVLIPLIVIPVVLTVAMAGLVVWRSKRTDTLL


Biological target: T1, human amylin receptor 3 (hAMYR3), hCTR2 …
Assay: cell-based or functional assay

| hAMYR3 EC50 (nM); cAMP induction | Binder |
| --- | --- |
| 0.07 nM | {C20 diacid}-[γGlu]RCGTATCATERLAHFLHRSSF[Sar]A[NMeI]LSSTEVGSSTP-NH2 (disulfide 3-8; SMILES CC[C@H](C)[C@@H](C(=O)N[C@@H](CC(C)C)C(=O)N[C@@H](CO)C(=O)N[C@@H](CO)C(=O)N[C@H](C(=O)N[C@@H](CCC(=O)O)C(=O)N[C@H](C(=O)NCC(=O)N[C@@H](CO)C(=O)N[C@@H](CO)C(=O)N[C@H](C(=O)N1CCC[C@H]1C(N)=O)[C@@H](C)O)C(C)C)[C@@H](C)O)N(C)C(=O)[C@H](C)NC(=O)CN(C)C(=O)[C@H](Cc1ccccc1)NC(=O)[C@H](CO)NC(=O)[C@H](CO)NC(=O)[C@H](CCCNC(=N)N)NC(=O)[C@H](Cc1c[nH]cn1)NC(=O)[C@H](CC(C)C)NC(=O)[C@H](Cc1ccccc1)NC(=O)[C@H](Cc1c[nH]cn1)NC(=O)[C@H](C)NC(=O)[C@H](CC(C)C)NC(=O)[C@H](CCCNC(=N)N)NC(=O)[C@H](CCC(=O)O)NC(=O)[C@@H](NC(=O)[C@H](C)NC(=O)[C@@H]1CSSC[C@H](NC(=O)[C@H](CCCNC(=N)N)NC(=O)CC[C@H](NC(=O)CCCCCCCCCCCCCCCCCCC(=O)O)C(=O)O)C(=O)NCC(=O)N[C@@H]([C@@H](C)O)C(=O)N[C@@H](C)C(=O)N[C@@H]([C@@H](C)O)C(=O)N1)[C@@H](C)O) [[19CD]-isoGlu-R-C( )-GTAT-C( )-ATERLAHFLHRSSF-Gly(Me)-A-Ile(Me)-LSSTEVGSSTP-NH2 (Compd. 37)] |
| 0.34 nM | {C20 diacid}-[γGlu]RCGTATCATERLADFLTRSSF[Sar]A[NMeI]LSSTEVGSST[Hyp]-NH2 (disulfide 3-8; SMILES CC[C@H](C)[C@@H](C(=O)N[C@@H](CC(C)C)C(=O)N[C@@H](CO)C(=O)N[C@@H](CO)C(=O)N[C@H](C(=O)N[C@@H](CCC(=O)O)C(=O)N[C@H](C(=O)NCC(=O)N[C@@H](CO)C(=O)N[C@@H](CO)C(=O)N[C@H](C(=O)N1C[C@H](O)C[C@H]1C(N)=O)[C@@H](C)O)C(C)C)[C@@H](C)O)N(C)C(=O)[C@H](C)NC(=O)CN(C)C(=O)[C@H](Cc1ccccc1)NC(=O)[C@H](CO)NC(=O)[C@H](CO)NC(=O)[C@H](CCCNC(=N)N)NC(=O)[C@@H](NC(=O)[C@H](CC(C)C)NC(=O)[C@H](Cc1ccccc1)NC(=O)[C@H](CC(=O)O)NC(=O)[C@H](C)NC(=O)[C@H](CC(C)C)NC(=O)[C@H](CCCNC(=N)N)NC(=O)[C@H](CCC(=O)O)NC(=O)[C@@H](NC(=O)[C@H](C)NC(=O)[C@@H]1CSSC[C@H](NC(=O)[C@H](CCCNC(=N)N)NC(=O)CC[C@H](NC(=O)CCCCCCCCCCCCCCCCCCC(=O)O)C(=O)O)C(=O)NCC(=O)N[C@@H]([C@@H](C)O)C(=O)N[C@@H](C)C(=O)N[C@@H]([C@@H](C)O)C(=O)N1)[C@@H](C)O)[C@@H](C)O) [[19CD]-isoGlu-R-C( )-GTAT-C( )-ATERLADFLTRSSF-Gly(Me)-A-Ile(Me)-LSSTEVGSST-Hyp-NH2 (Compd. 41)] |
| 0.36 nM | {C20 diacid}-[γGlu]RCGTATCATERLAHFLERSSF[Sar]A[NMeI]LSSTEVGSSTP-NH2 (disulfide 3-8; SMILES CC[C@H](C)[C@@H](C(=O)N[C@@H](CC(C)C)C(=O)N[C@@H](CO)C(=O)N[C@@H](CO)C(=O)N[C@H](C(=O)N[C@@H](CCC(=O)O)C(=O)N[C@H](C(=O)NCC(=O)N[C@@H](CO)C(=O)N[C@@H](CO)C(=O)N[C@H](C(=O)N1CCC[C@H]1C(N)=O)[C@@H](C)O)C(C)C)[C@@H](C)O)N(C)C(=O)[C@H](C)NC(=O)CN(C)C(=O)[C@H](Cc1ccccc1)NC(=O)[C@H](CO)NC(=O)[C@H](CO)NC(=O)[C@H](CCCNC(=N)N)NC(=O)[C@H](CCC(=O)O)NC(=O)[C@H](CC(C)C)NC(=O)[C@H](Cc1ccccc1)NC(=O)[C@H](Cc1c[nH]cn1)NC(=O)[C@H](C)NC(=O)[C@H](CC(C)C)NC(=O)[C@H](CCCNC(=N)N)NC(=O)[C@H](CCC(=O)O)NC(=O)[C@@H](NC(=O)[C@H](C)NC(=O)[C@@H]1CSSC[C@H](NC(=O)[C@H](CCCNC(=N)N)NC(=O)CC[C@H](NC(=O)CCCCCCCCCCCCCCCCCCC(=O)O)C(=O)O)C(=O)NCC(=O)N[C@@H]([C@@H](C)O)C(=O)N[C@@H](C)C(=O)N[C@@H]([C@@H](C)O)C(=O)N1)[C@@H](C)O) [[19CD]-isoGlu-R-C( )-GTAT-C( )-ATERLAHFLERSSF-Gly(Me)-A-Ile(Me)-LSSTEVGSSTP-NH2 (Compd. 36)] |
| 0.22 nM | {C20 diacid}-[γGlu]RCGTATCATERLAHFLQRSSF[Sar]A[NMeI]LSSTEVGSFTP-NH2 (disulfide 3-8; SMILES CC[C@H](C)[C@@H](C(=O)N[C@@H](CC(C)C)C(=O)N[C@@H](CO)C(=O)N[C@@H](CO)C(=O)N[C@H](C(=O)N[C@@H](CCC(=O)O)C(=O)N[C@H](C(=O)NCC(=O)N[C@@H](CO)C(=O)N[C@@H](Cc1ccccc1)C(=O)N[C@H](C(=O)N1CCC[C@H]1C(N)=O)[C@@H](C)O)C(C)C)[C@@H](C)O)N(C)C(=O)[C@H](C)NC(=O)CN(C)C(=O)[C@H](Cc1ccccc1)NC(=O)[C@H](CO)NC(=O)[C@H](CO)NC(=O)[C@H](CCCNC(=N)N)NC(=O)[C@H](CCC(N)=O)NC(=O)[C@H](CC(C)C)NC(=O)[C@H](Cc1ccccc1)NC(=O)[C@H](Cc1c[nH]cn1)NC(=O)[C@H](C)NC(=O)[C@H](CC(C)C)NC(=O)[C@H](CCCNC(=N)N)NC(=O)[C@H](CCC(=O)O)NC(=O)[C@@H](NC(=O)[C@H](C)NC(=O)[C@@H]1CSSC[C@H](NC(=O)[C@H](CCCNC(=N)N)NC(=O)CC[C@H](NC(=O)CCCCCCCCCCCCCCCCCCC(=O)O)C(=O)O)C(=O)NCC(=O)N[C@@H]([C@@H](C)O)C(=O)N[C@@H](C)C(=O)N[C@@H]([C@@H](C)O)C(=O)N1)[C@@H](C)O) [[19CD]-isoGlu-R-C( )-GTAT-C( )-ATERLAHFLQRSSF-Gly(Me)-A-Ile(Me)-LSSTEVGSFTP-NH2 (Compd. 39)] |
| 0.12 nM | {C20 diacid-γGlu}-RCGTATCATERLAHFLVRSSF[Sar]A[NMeI]LSSTEVGSSTP-NH2 (disulfide 2-7; SMILES CC[C@H](C)[C@@H](C(=O)N[C@@H](CC(C)C)C(=O)N[C@@H](CO)C(=O)N[C@@H](CO)C(=O)N[C@H](C(=O)N[C@@H](CCC(=O)O)C(=O)N[C@H](C(=O)NCC(=O)N[C@@H](CO)C(=O)N[C@@H](CO)C(=O)N[C@H](C(=O)N1CCC[C@H]1C(N)=O)[C@@H](C)O)C(C)C)[C@@H](C)O)N(C)C(=O)[C@H](C)NC(=O)CN(C)C(=O)[C@H](Cc1ccccc1)NC(=O)[C@H](CO)NC(=O)[C@H](CO)NC(=O)[C@H](CCCNC(=N)N)NC(=O)[C@@H](NC(=O)[C@H](CC(C)C)NC(=O)[C@H](Cc1ccccc1)NC(=O)[C@H](Cc1c[nH]cn1)NC(=O)[C@H](C)NC(=O)[C@H](CC(C)C)NC(=O)[C@H](CCCNC(=N)N)NC(=O)[C@H](CCC(=O)O)NC(=O)[C@@H](NC(=O)[C@H](C)NC(=O)[C@@H]1CSSC[C@H](NC(=O)[C@H](CCCNC(=N)N)NC(=O)CC[C@H](NC(=O)CCCCCCCCCCCCCCCCCCC(=O)O)C(=O)O)C(=O)NCC(=O)N[C@@H]([C@@H](C)O)C(=O)N[C@@H](C)C(=O)N[C@@H]([C@@H](C)O)C(=O)N1)[C@@H](C)O)C(C)C) [[19CD]-isoGlu-R-C( )-GTAT-C( )-ATERLAHFLVRSSF-Gly(Me)-A-Ile(Me)-LSSTEVGSSTP-NH2 (Compd. 38)] |
| 0.19 nM | {C20 diacid}-[γGlu]RCGTATCATERLAHFLNRSSF[Sar]A[NMeI]LSSTEVGSFTP-NH2 (disulfide 3-8; SMILES CC[C@H](C)[C@@H](C(=O)N[C@@H](CC(C)C)C(=O)N[C@@H](CO)C(=O)N[C@@H](CO)C(=O)N[C@H](C(=O)N[C@@H](CCC(=O)O)C(=O)N[C@H](C(=O)NCC(=O)N[C@@H](CO)C(=O)N[C@@H](Cc1ccccc1)C(=O)N[C@H](C(=O)N1CCC[C@H]1C(N)=O)[C@@H](C)O)C(C)C)[C@@H](C)O)N(C)C(=O)[C@H](C)NC(=O)CN(C)C(=O)[C@H](Cc1ccccc1)NC(=O)[C@H](CO)NC(=O)[C@H](CO)NC(=O)[C@H](CCCNC(=N)N)NC(=O)[C@H](CC(N)=O)NC(=O)[C@H](CC(C)C)NC(=O)[C@H](Cc1ccccc1)NC(=O)[C@H](Cc1c[nH]cn1)NC(=O)[C@H](C)NC(=O)[C@H](CC(C)C)NC(=O)[C@H](CCCNC(=N)N)NC(=O)[C@H](CCC(=O)O)NC(=O)[C@@H](NC(=O)[C@H](C)NC(=O)[C@@H]1CSSC[C@H](NC(=O)[C@H](CCCNC(=N)N)NC(=O)CC[C@H](NC(=O)CCCCCCCCCCCCCCCCCCC(=O)O)C(=O)O)C(=O)NCC(=O)N[C@@H]([C@@H](C)O)C(=O)N[C@@H](C)C(=O)N[C@@H]([C@@H](C)O)C(=O)N1)[C@@H](C)O) [[19CD]-isoGlu-R-C( )-GTAT-C( )-ATERLAHFLNRSSF-Gly(Me)-A-Ile(Me)-LSSTEVGSFTP-NH2 (Compd. 40)] |
| 0.34 nM | {C20 diacid}-[γGlu]RCGTATCATERLADFLTRSSF[Sar]A[NMeI]LSSTEVGSFT[Hyp]-NH2 (disulfide 3-8; SMILES CC[C@H](C)[C@@H](C(=O)N[C@@H](CC(C)C)C(=O)N[C@@H](CO)C(=O)N[C@@H](CO)C(=O)N[C@H](C(=O)N[C@@H](CCC(=O)O)C(=O)N[C@H](C(=O)NCC(=O)N[C@@H](CO)C(=O)N[C@@H](Cc1ccccc1)C(=O)N[C@H](C(=O)N1C[C@H](O)C[C@H]1C(N)=O)[C@@H](C)O)C(C)C)[C@@H](C)O)N(C)C(=O)[C@H](C)NC(=O)CN(C)C(=O)[C@H](Cc1ccccc1)NC(=O)[C@H](CO)NC(=O)[C@H](CO)NC(=O)[C@H](CCCNC(=N)N)NC(=O)[C@@H](NC(=O)[C@H](CC(C)C)NC(=O)[C@H](Cc1ccccc1)NC(=O)[C@H](CC(=O)O)NC(=O)[C@H](C)NC(=O)[C@H](CC(C)C)NC(=O)[C@H](CCCNC(=N)N)NC(=O)[C@H](CCC(=O)O)NC(=O)[C@@H](NC(=O)[C@H](C)NC(=O)[C@@H]1CSSC[C@H](NC(=O)[C@H](CCCNC(=N)N)NC(=O)CC[C@H](NC(=O)CCCCCCCCCCCCCCCCCCC(=O)O)C(=O)O)C(=O)NCC(=O)N[C@@H]([C@@H](C)O)C(=O)N[C@@H](C)C(=O)N[C@@H]([C@@H](C)O)C(=O)N1)[C@@H](C)O)[C@@H](C)O) [[19CD]-isoGlu-R-C( )-GTAT-C( )-ATERLADFLTRSSF-Gly(Me)-A-Ile(Me)-LSSTEVGSFT-Hyp-NH2 (Compd. 42)] |
